Measured values taken from article PMC11187117, “Structure of the endosomal CORVET tethering complex” (Nature Communications, 2024).

T1: Vps8 with 3xFLAG tag (CORVET subunit) (yeast, UniProt P39702 1-1274)
T1 construct: UniProt P39702 printed for its AlphaFold model
T1 sequence: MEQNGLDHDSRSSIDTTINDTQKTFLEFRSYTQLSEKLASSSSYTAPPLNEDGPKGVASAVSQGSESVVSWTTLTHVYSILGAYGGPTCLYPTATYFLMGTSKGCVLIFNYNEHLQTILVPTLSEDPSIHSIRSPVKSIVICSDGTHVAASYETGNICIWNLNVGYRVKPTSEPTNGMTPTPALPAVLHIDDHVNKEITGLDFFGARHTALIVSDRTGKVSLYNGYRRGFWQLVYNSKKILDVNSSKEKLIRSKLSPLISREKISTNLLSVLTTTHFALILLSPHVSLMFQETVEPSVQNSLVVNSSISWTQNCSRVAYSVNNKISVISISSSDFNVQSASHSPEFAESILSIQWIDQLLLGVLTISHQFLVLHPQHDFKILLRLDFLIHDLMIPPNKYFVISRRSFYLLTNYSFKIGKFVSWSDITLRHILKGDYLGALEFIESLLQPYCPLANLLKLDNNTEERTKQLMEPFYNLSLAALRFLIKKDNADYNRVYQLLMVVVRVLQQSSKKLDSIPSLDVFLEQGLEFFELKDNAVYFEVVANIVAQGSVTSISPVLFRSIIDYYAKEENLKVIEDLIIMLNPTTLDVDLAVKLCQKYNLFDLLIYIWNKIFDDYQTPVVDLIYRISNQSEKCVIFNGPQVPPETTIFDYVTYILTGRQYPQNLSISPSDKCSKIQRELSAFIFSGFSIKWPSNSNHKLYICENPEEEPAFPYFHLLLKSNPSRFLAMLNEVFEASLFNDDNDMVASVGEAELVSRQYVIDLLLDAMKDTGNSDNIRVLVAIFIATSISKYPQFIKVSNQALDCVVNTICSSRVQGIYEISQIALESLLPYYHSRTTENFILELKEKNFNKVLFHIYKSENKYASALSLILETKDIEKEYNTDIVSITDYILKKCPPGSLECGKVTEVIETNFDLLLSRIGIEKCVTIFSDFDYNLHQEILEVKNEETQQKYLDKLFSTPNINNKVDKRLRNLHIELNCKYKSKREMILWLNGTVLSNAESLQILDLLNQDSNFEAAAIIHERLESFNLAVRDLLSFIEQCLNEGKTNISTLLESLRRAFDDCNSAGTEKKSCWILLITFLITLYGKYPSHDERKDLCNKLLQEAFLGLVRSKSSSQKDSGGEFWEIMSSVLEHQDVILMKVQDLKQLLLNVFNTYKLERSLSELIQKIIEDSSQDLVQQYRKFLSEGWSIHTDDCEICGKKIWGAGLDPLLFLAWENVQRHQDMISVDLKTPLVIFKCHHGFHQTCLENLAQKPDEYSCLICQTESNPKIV

T2: Vps18 (CORVET and HOPS core subunit) (yeast, UniProt P27801 1-918)
T2 construct: Vps18, yeast, core subunit shared by CORVET and HOPS
T2 sequence: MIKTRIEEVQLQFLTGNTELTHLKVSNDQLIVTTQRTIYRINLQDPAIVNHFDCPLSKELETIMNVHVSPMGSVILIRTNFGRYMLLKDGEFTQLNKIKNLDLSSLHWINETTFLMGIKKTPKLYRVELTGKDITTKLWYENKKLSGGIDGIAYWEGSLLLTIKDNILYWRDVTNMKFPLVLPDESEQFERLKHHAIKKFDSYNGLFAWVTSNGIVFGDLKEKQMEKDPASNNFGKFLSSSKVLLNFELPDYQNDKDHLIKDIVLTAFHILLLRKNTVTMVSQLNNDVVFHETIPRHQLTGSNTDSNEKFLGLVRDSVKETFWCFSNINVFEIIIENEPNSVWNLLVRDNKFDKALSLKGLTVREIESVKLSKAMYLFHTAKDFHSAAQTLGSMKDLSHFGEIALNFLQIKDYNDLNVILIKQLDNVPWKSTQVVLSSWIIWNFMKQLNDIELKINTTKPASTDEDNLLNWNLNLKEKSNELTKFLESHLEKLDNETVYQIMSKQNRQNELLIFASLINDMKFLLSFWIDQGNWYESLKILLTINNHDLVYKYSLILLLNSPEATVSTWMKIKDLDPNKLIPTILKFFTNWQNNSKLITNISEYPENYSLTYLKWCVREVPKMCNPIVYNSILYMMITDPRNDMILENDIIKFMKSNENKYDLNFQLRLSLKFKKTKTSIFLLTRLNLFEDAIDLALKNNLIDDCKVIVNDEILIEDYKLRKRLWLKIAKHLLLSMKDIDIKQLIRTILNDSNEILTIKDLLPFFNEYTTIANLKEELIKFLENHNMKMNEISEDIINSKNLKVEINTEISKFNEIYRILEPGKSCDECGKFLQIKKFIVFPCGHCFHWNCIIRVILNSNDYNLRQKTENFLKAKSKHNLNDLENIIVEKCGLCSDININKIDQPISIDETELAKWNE

B1: Vps11 (CORVET and HOPS core subunit) (natural protein, yeast)
chain: MSLSSWRQFQLFENIPIRDPNFGGDSLLYSDPTLCAATIVDPQTLIIAVNSNIIKVVKLNQSQVIHEFQSFPHDFQITFLKVINGEFLVALAESIGKPSLIRVYKLEKLPNREQLYHSQVELKNGNNTYPISVVSISNDLSCIVVGFINGKIILIRGDISRDRGSQQRIIYEDPSKEPITALFLNNDATACFAATTSRILLFNTTGRNRGRPSLVLNSKNGLDLNCGSFNPATNEFICCLSNFIEFFSSSGKKHQFAFDLSLRKRIFCVDKDHILIVTEETGVPTTSISVNELSPTIINRIFIIDAKNKIISLNFVVSSAIIDIFSTSQSGKNITYLLTSEGVMHRITPKSLENQINIIIQKELYPFALQLAKQHSLSPLDVQEIHKKYGDYLFKKGLRKEATDQYIQCLDVVETSEIISKFGVKEVPDPESMRNLADYLWSLIKNSISQRDHVTLLLIVLIKLKDVEGIDTFIQHFDRKGIWNEGVVMDDMDDVTFFYSDNDFFDLDLILELMKESDFKRLSYRLAKKYSKDSLIIVDILLNLLHNPVKAIKYIKSLPIDETLRCLVTYSKKLLEESPNETNALLIEVFTGKFKPSTFEVDLDRRDTTGDFSENIRTVFYSYKTFFNYMNSNGTSDAMSESSEASHEHEEPTYHPPKPSIVFSSFVTKPFEFVVFLEACLACYQQYEGFDEDRQVILTTLYDLYLNLAQNDVPERIDDWRSRATGVLRESNKLVYSAASNNTSKRVDNSIMLLISHMDQSSASAKDKTKIDIASFANDNPEMDLLSTFRAMTLNEEPSTCLKFLEKYGTEEPKLLQVALSYFVSNKLIFKEMGGNEVLKEKVLRPIIEGERMPLLDIIKALSRTNVAHFGLIQDIIIDHVKTEDTEIKRNEKLIESYDKELKEKNKKLKNTINSDQPLHVPLKNQTCFMCRLTLDIPVVFFKCGHIYHQHCLNEEEDTLESERKLFKCPKCLVDLETSNKLFEAQHEVVEKNDLLNFALNSEEGSRDRFKVITEFLGRGAISYSDITI
notes: Vps11, yeast, core subunit shared by CORVET and HOPS

Assays:
Experiment in all cases: cryo-EM structure; single-particle cryo-EM of the hexameric CORVET co-expressed in yeast and purified by 3xFLAG on Vps8 and SEC; about 0.8 mg/ml; consensus map 4.6 Å, local refinements to 3.8 Å
Conditions in all cases: both partners purified
[1] = biological target: T1, Vps8 with 3xFLAG tag (CORVET subunit)
[2] = biological target: B1
[3] = biological target: T2, Vps18 (CORVET and HOPS core subunit)

Binder | binding result [1] | binding result [2] | binding result [3]
B1 | binds | – | –
Vps3 (CORVET subunit) (natural protein, yeast, UniProt P23643 printed for its AlphaFold model; N-terminal half (with the β-propeller) was removed from the deposited model; source: yeast lysate in the Vps8-ALFA pull-downs) MVKKKTNNDKGKEVKENEGKLDIDSESSPHERENDKKKTEDDSLRATESEETNTHNANPNETVRADKFSQEESRPIEDSPHTDKNTAQESCQPSSAEDNVINTDITSLNEKTSTNDEQEKGLPLKISEGPFTISTLLDNVPSDLIYTCCEAYENHIFLGTTTGDLLHYFELERGNYMLVSQTKFDAESNSKIDKILLLPKVEGALILCDNELVLFILPEFAPRPNTTRLKGISDVVICNFSRSSKAYRIYAFHAEGVRLLKISADSLVLTKAFNFKLIDKACAHEETLMVSKLNSYELINLKSSQVIPLFRISETDEDLEPIITSFNEQSEFLVCSGGGSYDSGAMALVVNHHGDIIKGTIVLKNYPRNVIVEFPYIIAESAFQSVDIYSALPSEKSQLLQSITTSGSDLKISKSDNVFTNTNNSEEFKEKIFNKLRLEPLTHSDNKFRIERERAFVEESYEEKTSLIVYNNLGIHLLVPTPMVLRFTSCEESEIDNIEDQLKKLAKKDLTKFEHIEAKYLMSLLLFLMTLHYDHIEDEVMKKWCDFSDKVDIRILFYMFGWKVYSEIWCFHGLINIVERLKSLKLTNKCENILKMLLMMKNELKKKNKTGLLTNDFDDIMKTIDITLFKLRLEKKETITVDMFERESYDEIIREINLHDDKLPRIELLIEIYKEKGEYLKALNLLREAGDYISLVSFIEENLKKLPEDYIKERIADDLLLTLKQGDENTEECAIKKVLKILDMACINKNDFLNKIPAEETSLKVSFIEQLGVQNSNDSKFLFNYYLAKLREIINQSNIWSILGDFIKEYKDDFAYDKTDITNFIHIKLKHSLQCENFSKYYEKCENLKSENEKDDEFINFTFDEISKIDKEHILTLLFFPNELTNWVSSEELLKIYLSFNDFRSVEKYIGKQNLVAVMKQYLDISSLNYSVELVTNLLQRNFELLDDTDIQLKILETIPSVFPVQTISELLLKVLIKYQEKKEESNLRKCLLKNQISISDELSRNFDSQG | – | binds | –
Vps16 (CORVET and HOPS subunit, SNARE-binding module) (natural protein, yeast, Vps16, yeast, subunit shared by CORVET and HOPS) MKNPSFDWERLKDVFYRSRAIGELKWPTQYEEFKCALSLTVIAVEIQDFIQVYNYFGQLLGKINLQRIHEDIIKFEFDKDEKLILVTKSSIKIVKGWSPLTIESVPLQDPTIDTIWDYHNGIMLLAKSRDIYKLNGNEWELLYENKDKKYNLLTKNHWSCNDDSIILLDVDHVYQVSTSNGALLKLITDSSWHKVTISSRGFICLYNMKDNKLQIFRDPARILMEHNLDSTPDDICWCGNDTVACSFEDEIKLYGPDGLYVTFWYPFTVTNLRAEVDGLKVITTEKIYFLSRVQPQTSNIFRIGSTEPGAMLVDSFSLLEDHAPKAIEILKNFVLEKGVLDCIAAAIDEFEPKLQKMLLNAASYGKASLQYKSFDASIFVNACNTIKLLNCFRSFGIFLTVEEYRCISLKGVIDRLLKYHRYYECIQICKLANERFLLGYVFTEWAKDKIKGSPDMEDDELLDKIKSRLSVIDMTDTLQMVAVAKVAYLEGRFQLSRNLALLEKNEEARIEQLYNLDDDSIALKECIKVQNYSLTISLLIALSKKLTNSQLTKLLIIDMFNNPLYLYYMRMDKAYLYDFYRQTDRFIDLAHVLLQQGKEQQSLHSFLPQIKDLYSQVQNSEVVNNTIEQLQRQEKLWIYQESLGKRFAISFTNMTLDQTLSKLIETGQDKQVKEIVKKFKISEKKLYHLKCKTLVEAKKFDELLQFAQSRKSPIGYMPFYTYLKSRGHMDKASPYVNMIPGLSYQEKKKLYVECRGFRDAIQLAGKEKDIPGLKEIYNIIPPNEPELKALANETMSRI | binds | – | binds
